# Measurements: publication PMC3661714 (Circulation, 2013)
# Starred links: 1 amine or outer side, 2 acyl side, 3 side chain; linkers in the order of their positions; H or OH if unused. Residues, ends and D or L forms follow the SMILES beside them. Groups on a side chain read outwards from the residue. *: point of attachment. X1 = FCCOC1CCCC2C(=CNN=C2c2ccc(CN*)cc2)CC1; Glutaryl = O=C(CCCC(=O)[*:2])[*:1]
# Legend:
# [1] = B6 mice, injected i.v., n = 5, R^2 = 0.95, mean±SEM
# [2] = target: T1, plasma transglutaminase factor XIII (FXIII) (Mus musculus, UniProt Q8BH61); test: Scintillation counting of 18F-FXIII signal in hearts with or without MI; format: in vivo; settings: p<0.05
# T1 sequence (Q8BH61 1-732): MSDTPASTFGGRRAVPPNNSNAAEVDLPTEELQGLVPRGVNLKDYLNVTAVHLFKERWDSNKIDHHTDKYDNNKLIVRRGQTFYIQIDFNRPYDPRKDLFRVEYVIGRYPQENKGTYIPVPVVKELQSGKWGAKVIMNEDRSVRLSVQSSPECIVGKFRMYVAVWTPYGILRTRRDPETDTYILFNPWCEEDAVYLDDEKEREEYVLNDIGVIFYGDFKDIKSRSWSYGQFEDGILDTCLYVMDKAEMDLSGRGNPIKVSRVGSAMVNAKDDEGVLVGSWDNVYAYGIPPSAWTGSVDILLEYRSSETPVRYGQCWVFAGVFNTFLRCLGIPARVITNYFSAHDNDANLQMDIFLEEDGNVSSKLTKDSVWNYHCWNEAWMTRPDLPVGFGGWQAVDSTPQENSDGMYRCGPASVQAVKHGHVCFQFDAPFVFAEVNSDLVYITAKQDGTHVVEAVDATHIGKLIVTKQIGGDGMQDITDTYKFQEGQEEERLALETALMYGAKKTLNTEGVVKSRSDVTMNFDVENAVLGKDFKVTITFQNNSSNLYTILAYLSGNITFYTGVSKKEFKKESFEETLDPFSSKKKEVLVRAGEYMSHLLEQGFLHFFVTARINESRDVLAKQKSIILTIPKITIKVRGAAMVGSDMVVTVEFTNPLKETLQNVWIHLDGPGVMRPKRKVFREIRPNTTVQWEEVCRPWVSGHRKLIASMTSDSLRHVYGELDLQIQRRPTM
# in vivo = settings: B6, mouse, iv, SEM
smiles,measurement,setting,value
CC(=O)NCC(=O)N[C@@H](CC(N)=O)C(=O)N[C@@H](CCC(N)=O)C(=O)N[C@@H](CCC(=O)O)C(=O)N[C@@H](CCC(N)=O)C(=O)N[C@H](C(=O)N[C@@H](CO)C(=O)N1CCC[C@H]1C(=O)N[C@@H](CC(C)C)C(=O)N[C@H](C(=O)N[C@@H](CC(C)C)C(=O)N[C@@H](CC(C)C)C(=O)N[C@@H](CCCCNC(=O)CCCC(=O)NCc1ccc(C2=NNC=C3CCC(OCCF)CCCC32)cc1)C(=O)N[C@@H](Cc1c[nH]c2ccccc12)C(=O)O)[C@@H](C)O)C(C)C (stereo partly drawn) [18F-FXIII] (Ac-GNQEQVSPLTLLK([Glutaryl-X1])W-OH; N-terminus and C-terminus assumed),blood half-life,[1],13.2 ± 0.94 min
same,Signal intensity in hearts of FXIII−/− mice with MI (specificity),"[2]; day 4 after MI, comparable to non-infarcted wild-type B6 and FXIII−/− mice",significantly lower
same,"18F-FXIII signal in the heart, B6 mice with MI compared to control mice","[2]; day 4 after coronary ligation, n = 4-5 per group",significantly higher
same,tissue uptake at 1.25 h,in vivo; blood,0.49 ± 0.03 %ID/g
same,tissue uptake at 1.25 h,in vivo; bone,0.31 ± 0.03 %ID/g
same,tissue uptake at 1.25 h,in vivo; fat,0.17 ± 0.01 %ID/g
same,tissue uptake at 1.25 h,in vivo; heart,0.23 ± 0.03 %ID/g
same,tissue uptake at 1.25 h,in vivo; intestines,0.25 ± 0.04 %ID/g
same,tissue uptake at 1.25 h,in vivo; kidney,1.26 ± 0.06 %ID/g
same,tissue uptake at 1.25 h,in vivo; liver,2.83 ± 0.22 %ID/g
same,tissue uptake at 1.25 h,in vivo; lymph node,0.6 ± 0.1 %ID/g
same,tissue uptake at 1.25 h,in vivo; muscle,0.15 ± 0.01 %ID/g
same,tissue uptake at 1.25 h,in vivo; skin,0.31 ± 0.05 %ID/g
same,tissue uptake at 1.25 h,in vivo; spleen,0.49 ± 0.05 %ID/g
same,tissue uptake at 1.25 h,in vivo; tail,0.41 ± 0.03 %ID/g
